Results taken from patent US20030073111.

B1: IKKα/CHUK (protein)
chain: MERPPGLRPGAGGPWEMRERLGTGGFGNVSLYQHRELDLKIAIKSCRLELSSKNRERWCHEIQIMKKLDHANVVKACDVPEELNFLINDVPLLAMEYCSGGDLRKLLNKPENCCGLKESQILSLLSDIGSGIRYLHENKIIHRDLKPENIVLQDVGGKTIHKIIDLGYAKDVDQGSLCTSFVGTLQYLAPELFENKPYTATVDYWSFGTMVFECIAGYRPFLHHLQPFTWHEKIKKKDPKCIFACEEMTGEVRFSSHLPQPNSLCSLIVEPMESWLQLMLNWDPQQRGGPIDLTLKQPRCFALMDHILNLKIVHILNMTSAKIISFLLPCDESLHSLQSRIERETGINTGSQELLSETGISLDPRKPASQCVLDGVRGCDSYMVYLFDKSKTVYEGPFASRSLSDCVNYIVQDSKIQLPIIQLRKVWAEAVHYVSGLKEDYSRLFQGQRAAMLSLLRYNANLTKMKNTLISASQQLKAKLEFFRKSIQLDLERYSEQMTYGISSEKMLKAWKEMEEKAIHYSEVGVIGYLEDQIMSLHTEIMELQKSPYGRRQGDLMESLEQRAIDLYKQLKHRPPDHLYSDSTEMVKIIVHTVQSQDRVLKELFGHLSKLLGCKQKIIDLLPKVEVALSNIKEADNTVMFMQGKRQKEIWHLLKIACTQSSARSLVGSSLEGTVTPPVSAWLPPTLADREHPLTCVVTPQDGETLAQMIEENLNCLGHLSTIIREANEDQSSSLMSLDWSWLAE
B2: IKKα-ΔCm (protein)
chain: MERPPGLRPGAGGPWEMRERLGTGGFGNVSLYQHRELDLKIAIKSCRLELSSKNRERWCHEIQIMKKLDHANVVKACDVPEELNFLINDVPLLAMEYCSGGDLRKLLNKPENCCGLKESQILSLLSDIGSGIRYLHENKIIHRDLKPENIVLQDVGGKTIHKIIDLGYAKDVDQGSLCTSFVGTLQYLAPELFENKPYTATVDYWSFGTMVFECIAGYRPFLHHLQPFTWHEKIKKKDPKCIFACEEMTGEVRFSSHLPQPNSLCSLIVEPMESWLQLMLNWDPQQRGGPIDLTLKQPRCFALMDHILNLKIVHILNMTSAKIISFLLPCDESLHSLQSRIERETGINTGSQELLSETGISLDPRKPASQCVLDGVRGCDSYMVYLFDKSKTVYEGPFASRSLSDCVNYIVQDSKIQLPIIQLRKVWAEAVHYVSGLKEDYSRLFQGQRAA
B3: IKKα-ΔLH (protein)
chain: MERPPGLRPGAGGPWEMRERLGTGGFGNVSLYQHRELDLKIAIKSCRLELSSKNRERWCHEIQIMKKLDHANVVKACDVPEELNFLINDVPLLAMEYCSGGDLRKLLNKPENCCGLKESQILSLLSDIGSGIRYLHENKIIHRDLKPENIVLQDVGGKTIHKIIDLGYAKDVDQGSLCTSFVGTLQYLAPELFENKPYTATVDYWSFGTMVFECIAGYRPFLHHLQPFTWHEKIKKKDPKCIFACEEMTGEVRFSSHLPQPNSLCSLIVEPMESWLQLMLNWDPQQRGGPIDLTLKQPRCFALMDHILNLKIVHILNMTSAKIISFLLPCDESLHSLQSRIERETGINTGSQELLSETGISLDPRKPASQCVLDGVRGCDSYMVYLFDKSKTVYEGPFASRSLSDCVNYIVQDSKIQLPIIQLRKVWAEAVHYVSGLKEDYSRLFQGQRAAIFRKNVKSMERNGRKGHSLF

target: GST-IκBα (1-62)

Protein	immunoprecipitatable kinase activity towards GST-IκBα(1-62)
B1	TNF-α stimulation of HEK293 cells transfected with each IKKα/CHUK isoform resulted in an increase in immunoprecipitatable kinase activity towards GST-IκBα(1-62)
B2	TNF-α stimulation of HEK293 cells transfected with each IKKα/CHUK isoform resulted in an increase in immunoprecipitatable kinase activity towards GST-IκBα(1-62)
B3	TNF-α stimulation of HEK293 cells transfected with each IKKα/CHUK isoform resulted in an increase in immunoprecipitatable kinase activity towards GST-IκBα(1-62)
